Assay results: patent publication US20240115722A1

Target: human EPH receptor A5 (EphA5) expressed on cells (human) (UniProt P54756)
Experiment: high-throughput flow cytometry, HEK293T cells expressing wild-type EPHA5 versus vector alone, Fab at 0.50 µg/ml

Chain of human EPH receptor A5 (EphA5) expressed on cells (human) (P54756 25-1037 limits assumed): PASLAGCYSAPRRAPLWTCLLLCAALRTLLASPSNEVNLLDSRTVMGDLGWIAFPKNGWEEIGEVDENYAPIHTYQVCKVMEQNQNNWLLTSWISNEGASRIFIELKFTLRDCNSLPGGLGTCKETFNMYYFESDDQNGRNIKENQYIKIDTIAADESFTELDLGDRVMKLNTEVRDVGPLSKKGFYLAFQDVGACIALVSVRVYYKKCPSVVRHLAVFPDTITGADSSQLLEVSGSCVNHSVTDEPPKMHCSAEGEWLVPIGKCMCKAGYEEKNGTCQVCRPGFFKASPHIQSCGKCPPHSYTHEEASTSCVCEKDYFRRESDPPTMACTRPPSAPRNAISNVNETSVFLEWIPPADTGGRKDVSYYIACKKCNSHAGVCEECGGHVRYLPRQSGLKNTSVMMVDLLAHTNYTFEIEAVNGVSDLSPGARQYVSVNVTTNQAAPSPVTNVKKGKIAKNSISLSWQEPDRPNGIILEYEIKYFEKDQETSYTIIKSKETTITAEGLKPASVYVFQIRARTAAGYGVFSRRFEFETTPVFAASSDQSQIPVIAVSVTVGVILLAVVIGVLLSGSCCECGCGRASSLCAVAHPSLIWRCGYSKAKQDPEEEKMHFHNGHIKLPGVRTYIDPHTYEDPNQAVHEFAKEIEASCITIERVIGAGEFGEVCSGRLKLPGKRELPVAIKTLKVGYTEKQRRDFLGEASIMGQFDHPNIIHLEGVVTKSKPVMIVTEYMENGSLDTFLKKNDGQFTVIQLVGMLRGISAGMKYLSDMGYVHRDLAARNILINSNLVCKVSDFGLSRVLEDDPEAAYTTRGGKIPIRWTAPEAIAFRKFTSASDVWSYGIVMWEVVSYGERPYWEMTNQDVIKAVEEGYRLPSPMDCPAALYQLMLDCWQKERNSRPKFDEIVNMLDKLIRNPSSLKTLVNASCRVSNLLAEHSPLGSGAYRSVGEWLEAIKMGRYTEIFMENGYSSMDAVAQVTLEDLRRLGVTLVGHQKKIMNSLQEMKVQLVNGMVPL

Binder | Signal:Background
Fab derived from the H5K3 antibody (Fab, part only; not given: CH1 and upper hinge limits, V domains shown, not shown: another chain or arm of the molecule; a dimerising Fc or GST) VH: EVQLVESGGGLVQPGGSLKLSCAASGFTFSTFGIHWVRQAPGKGLEWVAYISGASTTIYYADSVKGRFTISRDNSKNTLYLQMNSLRAEDTAVYYCARYGTSFPYGLDYWGQGTLVTVSS VL: DIVMTQSPDSLAVSLGERATINCKASQSVDYDGDSYMNWYQQKPGKAPKLLIYGASNLESGIPDRFSGSGSGTDFTLTISRLEPEDAAVYYCQQSNEDPFTFGQGTKLEIK | 70
Fab derived from the H4K3 antibody (Fab, part only; not given: CH1 and upper hinge limits, V domains shown, not shown: another chain or arm of the molecule; a dimerising Fc or GST) VH: EVQLVESGGGLVQPGGSLKLSCAASGFTFSTFGIHWVRQAPGKGLEWVAYISGASTTIYYADTVKGRFTISRDNSKNTLYLQMNSLRAEDTAVYYCARYGTSFPYGLDYWGQGTLVTVSS VL: DIVMTQSPDSLAVSLGERATINCKASQSVDYDGDSYMNWYQQKPGKAPKLLIYGASNLESGIPDRFSGSGSGTDFTLTISRLEPEDAAVYYCQQSNEDPFTFGQGTKLEIK | 66
